Values of other authors as cited in article PMC3386632.

Target: integrin αIIbβ3 (Homo sapiens) (UniProt P08514)

In the case of disagregin (from UniProt P36235), the Kd is given as 40 nM.
